Experimental data taken from patent US20150368299A1.

Target: Aβ(1-40) monomer in 0.1% NaOH (human)
Test: dot blot with densitometry; Aβ form dotted on nitrocellulose in serial dilution, antibody 0.2 µg/ml; higher value = weaker recognition

Aβ(1-40) monomer in 0.1% NaOH (human), sequence (peptide, as listed by the source): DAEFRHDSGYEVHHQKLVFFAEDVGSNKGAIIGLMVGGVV

dot blot relation of recognition of Aβ(20-42) globulomer to recognition of this Aβ form: 110000
B1: murine monoclonal anti-Aβ(20-42) globulomer antibody m4C9 (antibody, V domains shown)
VH: QVQLQQPGAELVKPGASVKLSCKAPGYTFTSYWMHWVKQRPGQGLEWIGRIDPKSGDTKYTEKFKSKATLTVDKPSSTAYMQLSSLTSEDSAVYYCTTMSKLSGTHAWFAYWGQGTLVTVSA
VL: DIKMTQSPSSMYASLGERVTITCKASQDINSYLTWFQQKPGKSPKTLIYRANRLVDGVPSRFSGSGSGQDYSLTISSLEYEDMGIYYCLQYDEFPLTFGAGTKLELK
